Results on 5 substances are retold here after article PMC5897841, “Development of a multipurpose scaffold for the display of peptide loops” (Protein Engineering, Design and Selection, 2017).

Bridge positions count the residues as written; N and C are the ends. Ends that are not written are not given here.

The subject of test [1] is CK2β/CK2α complex. Also noted: method as in Laudet et al., 2007. The following applies: read-out: IC50, inhibition of CK2β/CK2α complex formation; ref Laudet et al., 2007; cited from earlier work.
Test [2] deals with CK2α. Also noted: method as in Raaf et al., 2013. To be noted: ref Raaf et al., 2013; cited from earlier work.
Test [3] deals with T1, wild-type Aurora A (Aurora AWT) kinase domain (Homo sapiens, UniProt O14965).
T1 construct: Aurora A (126-391)WT; made in house; host or cells: E. coli; plasmid pHAT4-LambdaPP
T1 sequence (O14965 126-391): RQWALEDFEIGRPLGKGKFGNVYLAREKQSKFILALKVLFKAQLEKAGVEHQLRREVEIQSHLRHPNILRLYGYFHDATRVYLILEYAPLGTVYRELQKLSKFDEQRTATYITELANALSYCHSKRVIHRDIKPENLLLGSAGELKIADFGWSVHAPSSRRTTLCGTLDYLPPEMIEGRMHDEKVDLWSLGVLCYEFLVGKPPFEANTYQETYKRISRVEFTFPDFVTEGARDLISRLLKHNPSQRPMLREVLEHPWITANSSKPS
Nature of the test: Bio-Layer Interferometry direct binding of Aurora AWT to RAD-TPX2 mutants. The following applies: double His-tagged RAD-TPX2 on Anti-Penta-HIS biosensors, 50 mM HEPES pH 7.4, 500 mM NaCl, 100 mM Mg(CH3COO)2, 0.5 mM ATP, 0.5 mM TCEP, 0.05% P20, 1:1 model, read-out: KD, BLI (Fig. 5a). How it is done: Octet RED96 (ForteBio) instrument was used for BLI analysis for double His-tagged RAD-TPX2/Aurora AWT interactions. Experiments were performed using Anti-Penta-HIS biosensors (ForteBio), which were regenerated with 10 mM glycine, pH 1.7. IMAC purified RAD proteins displaying wild-type sequence or alanine mutants of the TPX2 were buffer exchanged into 50 mM HEPES pH 7.4, 500 mM NaCl, 100 mM Mg(CH3COO)2, 0.5 mM ATP, 0.5 mM TCEP, 0.05% P20 (assay buffer). For binding assays pre-wet sensors were loaded with double His-tag labeled proteins at 1 μM in assay buffer. Dilution series (from 0 to 500 or 5000 nM) of Aurora AWT kinase construct without His-tag was prepared in the assay buffer and following experimental setup was used for each measurement cycle: regeneration 3 × 5 s, baseline monitoring 120 s, sample loading 200 s, baseline monitoring 150 s, ligand binding (association) 400 s and ligand dissociation 600 s, followed by regeneration and the next cycle. Regenerated Anti-Penta-HIS biosensors were used to perform double referencing. Data was processed using ForteBio Analysis 7.1 software and dissociation constants were calculated in pro Fit (Quantum Soft) by fitting experimental data to 1:1 binding model equation.

Test [4] has as its target T2, CK2α kinase (Homo sapiens, UniProt P68400).
T2 construct: made in house; host or cells: E. coli BL21(DE3) with pUBS520; pBAT4 plasmid
T2 sequence (P68400 2-329): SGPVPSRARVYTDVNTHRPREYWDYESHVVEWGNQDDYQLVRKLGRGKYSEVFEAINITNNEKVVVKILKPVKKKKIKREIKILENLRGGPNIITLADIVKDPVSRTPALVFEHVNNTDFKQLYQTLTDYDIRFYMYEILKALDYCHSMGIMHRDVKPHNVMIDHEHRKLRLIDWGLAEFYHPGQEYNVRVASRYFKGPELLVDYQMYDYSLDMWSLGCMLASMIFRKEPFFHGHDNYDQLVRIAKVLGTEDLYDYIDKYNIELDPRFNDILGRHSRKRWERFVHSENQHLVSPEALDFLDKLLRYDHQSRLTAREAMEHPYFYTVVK
Description: Fluorescence anisotropy direct binding of labeled CK2β(186–200) / RAD-CK2β. The method, then: About 100 μg peptide or protein in 500 μl sodium phosphate pH 6.75, 150 mM NaCl were labeled using 30-fold excess of the maleimide dye. The reactions was allowed to proceed for 1 h at room temperature and the Alexa Fluor 488-maleimide was removed by dialysis using 3-kDa molecular weight cut-off membrane against 10 mM Tris pH 8, 250 mM NaCl buffer. Protein and peptide samples were dialyzed for 3 h at room temperature and further purified by SEC using Superdex 75 GL 10/300 or Superdex peptide 10/300 GL column (GE Healthcare). Labeled peptides and proteins were concentrated to 100 μM, flash frozen in liquid nitrogen and stored at −80°C. The concentration of labeled peptide or proteins and degree of labeling was determined by measuring the absorbance at 280 and 495 nm.
A stock solution of Alexa Fluor 488-labeled peptide or display proteins was diluted in assay buffer to concentration of 20 nM. For both studies, 10 mM HEPES pH 7.4, 500 mM NaCl, 1 mM DTT, 0.05% P20 buffer from was used. […] FA was measured using PheraStar spectrofluorimeter plate reader (BMG Laboratories, Durham, NC) equipped with polarization filters (excitation 485 nm, emission 520 nm). Dissociation constants were calculated in pro Fit (Quantum Soft) by fitting experimental data to 1:1 binding model equation.

In test [5] the target is T2, CK2α kinase. Description: Affinities for CK2α across the experimental techniques (ITC, SPR, FA). It is filed as binding. To be noted: read-out: KD range between the different experimental techniques. How it is done: All ITC experiments were performed on itc200 instrument (GE Healthcare). Prior to ITC titration, proteins and peptides were buffer exchanged into 10 mM HEPES pH 7.4, 500 mM NaCl, 0.05% P20 surfactant. ITC experiments with Aurora Awt kinase were performed in buffer containing 50 mM HEPES pH 7.4, 100 mM Mg(CH3COO)2, 100 mM NaCl, 1 mM ATP, 1 mM DTT, 0.01% v/v P20. […] In the Aurora AD274N and Aurora AWT binding assays, 50 μM solution of the titrant was injected into 5 μM kinase solution in the cell. […] Binding isotherms were fit by non-linear regression using the single-site model provided by ORIGIN software (Origin Lab). […]
SPR analyses were conducted using a Biacore T100 instrument (GE Healthcare) using CM5 sensor chips to which cRAD display proteins were immobilized through their unique cysteine residues. […] Aurora A binding to TPX-2 peptide and RAD-TPX-2 were analyzed also using kinetic data with heterogenous ligand model, with data presented in the Supplementary Material.
A stock solution of Alexa Fluor 488-labeled peptide or display proteins was diluted in assay buffer to concentration of 20 nM. […] FA was measured using PheraStar spectrofluorimeter plate reader (BMG Laboratories, Durham, NC) equipped with polarization filters (excitation 485 nm, emission 520 nm). Dissociation constants were calculated in pro Fit (Quantum Soft) by fitting experimental data to 1:1 binding model equation.

Test [6] has as its target T2, CK2α kinase. Nature of the test: ITC binding of CK2β(186–200) peptide / RAD display to CK2α. To be noted: 25°C, 10 mM HEPES pH 7.4, 500 mM NaCl, 0.05% P20, 100 μM titrant into 10 μM CK2α, single titration, ± from fitting, RAD version is cRAD-CK2β(186–200), read-out: Equilibrium dissociation constant (KD), ITC. How it is done: All ITC experiments were performed on itc200 instrument (GE Healthcare). Prior to ITC titration, proteins and peptides were buffer exchanged into 10 mM HEPES pH 7.4, 500 mM NaCl, 0.05% P20 surfactant. ITC experiments with Aurora Awt kinase were performed in buffer containing 50 mM HEPES pH 7.4, 100 mM Mg(CH3COO)2, 100 mM NaCl, 1 mM ATP, 1 mM DTT, 0.01% v/v P20. […] In the Aurora AD274N and Aurora AWT binding assays, 50 μM solution of the titrant was injected into 5 μM kinase solution in the cell. […] Binding isotherms were fit by non-linear regression using the single-site model provided by ORIGIN software (Origin Lab). The stoichiometry of the interaction (N), equilibrium association constant (KA) and change of enthalpy (ΔH) were floated during the fitting.

Test [7] concerns the target T2, CK2α kinase. Nature of the test: SPR binding of CK2α to immobilized CK2β(186–200) / RAD-CK2β. To be noted: Biacore T100, CM5 chip, ligand immobilized via free cysteine (linear peptide with C-terminal Gly-Cys), 25°C, 10 mM HEPES pH 7.4, 500 mM NaCl, 0.05% P20; data at 200 s post-injection; 1:1 steady-state model; ± from fitting; read-out: Equilibrium dissociation constant (KD), SPR steady-state. The method, then: SPR analyses were conducted using a Biacore T100 instrument (GE Healthcare) using CM5 sensor chips to which cRAD display proteins were immobilized through their unique cysteine residues. All coupling reagents were purchased from GE Healthcare: N-ethyl-N′-dimethylaminopropylcarbodiimide (EDC), 2-(2-pyridinyldithio) ethaneamine hydrochloride (PDEA), N-hydroxysuccinimide (NHS). All immobilizations were conducted at 25°C in running buffer 10 mM HEPES pH 7.4, 500 mM sodium chloride, 0.05% P20. Two CM5 sensor chips were used for the experiments. Peptides and RAD scaffold displaying the peptides were covalently immobilized via free cysteine on the sensor surface in cells 2 and 4, respectively. Cells 1 and 3 were derivatized with cysteine only and served as reference surfaces. Active and reference cells were created automatically using the immobilization surface preparation Wizard software. Immobilization levels for cells 2 and 4 ranged from 240 to 400 RU. […] The dissociation step was 180 s after which sensor surfaces were regenerated by injecting 3 M MgCl2 solution 3 times for 30 sat 60 μl/min. […] Aurora A binding to TPX-2 peptide and RAD-TPX-2 were analyzed also using kinetic data with heterogenous ligand model, with data presented in the Supplementary Material.

Test [8] addresses Aurora A. The following applies: N-terminal segment of TPX2; ref Anderson et al., 2007; read-out: Affinity of TPX2 for Aurora A; cited from earlier work. The source says:
Aurora A kinase plays an important role in the mitotic spindle assembly and is overexpressed in tumor cells ([Bischoff et al., 1998]). It is known to be dramatically activated by TPX2 protein, which binds to the Aurora A catalytic domain and translocates the kinase to the mitotic spindle during mitosis ([Bischoff et al., 1998]; [Kufer et al., 2002]; [Eyers et al., 2003]).

Consider “GCRLYGFKIHGCG (disulfide 2-12 (inferred)) [Pc peptide]”, for which, in test [1], the IC50 is 3000 nM. Moreover, in test [2], the Kd was 559 nM. Consider “RAD-TPX2(7–43): RAD scaffold (RadA ATPase domain) displaying residues 7–43 of human TPX2”, for which, in test [3], the Kd stood at 46 nM. With “CK2β(186–200): synthetic linear peptide, residues 186–200 of human CK2β (RLYGFKIHPMAYQLQ; UniProt P67870 186-200, looked up, fragment)”, the Kd in test [4] (fluorescein-labeled linear peptide or Alexa Fluor 488-labeled cRAD-CK2β(186–200), 10 mM HEPES pH 7.4, 500 mM NaCl, 1 mM DTT, 0.05% P20, CK2α 2 nM–2 μM, 15 min room temperature, 1:1 model, ± from fitting, read-out: Equilibrium dissociation constant (KD), FA) is 348 ± 27 nM; in test [5], 138 to 407 nM; in test [6], 138 ± 13 nM; in test [7] it was 407 ± 50 nM.

For “TPX2: TPX2 protein, binds Aurora A through its N-terminal segment (LSYSYDAPSDFINFSSLDDEGDTQNIDSWFEEKANLENLKGGGCQM; left off: KSI, end not stated, cleaved)”, the Kd in test [8] is 2.3 nM. Take “fluorescein labeled linear CK2β peptide: fluorescein labeled linear CK2β(186–200) peptide (RLYGFKIHPMAYQLQ; also: fluorescein label, site not given here; UniProt P67870 186-200, looked up, fragment) [reference compound]”: in test [4] (fluorescein-labeled linear CK2β peptide relative to RAD-CK2β display), the “Fold weaker affinity of labeled linear peptide vs RAD display, FA” value is given as ~ 3 times.
